From patent publication US20210047394A1 (Hoffmann-La Roche, published 2021)

Assays:
[1] = biological target: T1, full-length Angiopoietin-2-His protein (R&D Systems #623-AN/CF or in house produced material) (human, UniProt O15123 19-496, limits assumed); assay: cell-based or functional assay
T1 sequence: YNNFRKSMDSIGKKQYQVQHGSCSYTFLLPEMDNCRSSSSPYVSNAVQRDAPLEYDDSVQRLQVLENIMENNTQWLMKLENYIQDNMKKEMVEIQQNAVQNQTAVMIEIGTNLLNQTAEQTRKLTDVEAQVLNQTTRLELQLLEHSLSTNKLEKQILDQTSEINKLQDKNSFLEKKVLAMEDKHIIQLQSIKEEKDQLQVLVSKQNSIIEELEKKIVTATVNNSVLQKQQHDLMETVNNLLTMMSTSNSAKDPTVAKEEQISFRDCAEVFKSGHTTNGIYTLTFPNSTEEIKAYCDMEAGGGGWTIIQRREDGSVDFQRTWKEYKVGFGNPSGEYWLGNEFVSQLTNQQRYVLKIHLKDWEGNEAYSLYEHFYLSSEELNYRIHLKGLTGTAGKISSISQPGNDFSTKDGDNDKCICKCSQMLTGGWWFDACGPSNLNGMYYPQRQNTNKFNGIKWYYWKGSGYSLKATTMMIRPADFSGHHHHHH

[2] = biological target: T2, Angiopoietin-1-His (R&D systems #923-AN) (human, UniProt Q15389 20-498, limits assumed); assay: ANG-1 binding ELISA, coated ANG-1
T2 construct: also called human ANG-1; hANG-1; not shown: His tag
T2 sequence: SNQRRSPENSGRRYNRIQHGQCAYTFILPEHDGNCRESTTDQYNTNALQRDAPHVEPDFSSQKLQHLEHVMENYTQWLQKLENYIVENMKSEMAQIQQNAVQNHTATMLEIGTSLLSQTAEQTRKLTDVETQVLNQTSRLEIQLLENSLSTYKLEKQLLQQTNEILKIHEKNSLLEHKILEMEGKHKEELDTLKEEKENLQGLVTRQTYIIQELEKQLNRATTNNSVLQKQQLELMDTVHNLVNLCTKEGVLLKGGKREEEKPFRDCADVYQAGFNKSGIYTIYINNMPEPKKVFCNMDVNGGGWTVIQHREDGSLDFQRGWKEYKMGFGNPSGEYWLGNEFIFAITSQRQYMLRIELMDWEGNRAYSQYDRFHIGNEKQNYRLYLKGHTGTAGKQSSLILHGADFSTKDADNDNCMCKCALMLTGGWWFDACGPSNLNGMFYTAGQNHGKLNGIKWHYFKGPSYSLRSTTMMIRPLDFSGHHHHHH

[3] = biological target: T1, full-length Angiopoietin-2-His protein …; assay: ANG-2 binding ELISA, coated ANG-2
[4] = biological target: T3, rhVEGF (R&D Systems Cat. No. 293-VE) (human, UniProt P15692 181-395); assay: SPR (Biacore), hVEGF affinity
T3 construct: Analyte in the Biacore assays; also called VEGF-A

[5] = biological target: T4, full-length VEGF165-His protein (R&D Systems) (human, UniProt P15692 181-395); assay: VEGF binding ELISA, coated VEGF165
T4 construct: also called recombinant human VEGF165; VEGF-A; not shown: His tag

[6] = biological target: T3, rhVEGF (R&D Systems Cat. No. 293-VE); assay: SPR (Biacore), antibody on captured Ang-2, then rhVEGF
[7] = biological target: T1, full-length Angiopoietin-2-His protein …; assay: inhibition of huANG-2 binding to coated Tie-2 (ELISA)
[8] = biological target: T1, full-length Angiopoietin-2-His protein …; assay: SPR (Biacore), antibody captured by secondary antibody, ANG-2 analyte; KD only a relative estimation
[9] = biological target: T1, full-length Angiopoietin-2-His protein …; assay: SPR (Biacore T100), antibody captured via anti-hIgG-Fc, ANG-2-His analyte, 25 C; relative estimation
[10] = biological target: T3, rhVEGF (R&D Systems Cat. No. 293-VE); assay: SPR (Biacore T100), antibody captured via anti-human IgG, rhVEGF analyte, 37 C

T3 sequence (P15692 other isoform, or with tags, fused parts or gaps limits assumed): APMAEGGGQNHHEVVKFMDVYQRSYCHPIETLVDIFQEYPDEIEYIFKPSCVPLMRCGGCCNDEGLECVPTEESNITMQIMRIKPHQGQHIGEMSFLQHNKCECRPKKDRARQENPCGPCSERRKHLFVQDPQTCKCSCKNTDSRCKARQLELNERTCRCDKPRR
T4 sequence (P15692 other isoform, or with tags, fused parts or gaps): as the sequence (P15692 other isoform, or with tags, fused parts or gaps limits assumed) above

B1: <ANG-2>Ang2i_LC06 (antibody, V domains shown)
VH: not shown
VL: QPGLTQPPSVSVAPGQTARITCGGNNIGSKSVHWYQQKPGQAPVLVVYDDSDRPSGIPERFSGSNSGNTATLTISRVEAGDEADYYCQVWDSSSDHYVFGTGTKVTVLG
notes: Parent monospecific antibody
[1]
  IC50, ANGPT2 stimulated Tie2 phosphorylation (HEK293-Tie2 cells), first experiment: ~0.508 µg/mL
  IC50, ANGPT2 stimulated Tie2 phosphorylation (HEK293-Tie2 cells), second experiment: ~0.424 µg/mL
[2]
  EC50: > 8 µg/mL
[3]
  EC50: 0.084 µg/mL

B2: Bevacizumab-LC06-VH-VL (bispecific antibody, human IgG1, kappa)
heavy 1: not shown
heavy 2: not shown
light 1: QPGLTQPPSVSVAPGQTARITCGGNNIGSKSVHWYQQKPGQAPVLVVYDDSDRPSGIPERFSGSNSGNTATLTISRVEAGDEADYYCQVWDSSSDHYVFGTGTKVTVLRTVAAPSVFIFPPSDEQLKSGTASVVCLLNNFYPREAKVQWKVDNALQSGNSQESVTEQDSKDSTYSLSSTLTLSKADYEKHKVYACEVTHQGLSSPVTKSFNRGEC
light 2: EVQLVESGGGLVQPGGSLRLSCAASGYTFTNYGMNWVRQAPGKGLEWVGWINTYTGEPTYAADFKRRFTFSLDTSKSTAYLQMNSLRAEDTAVYYCAKYPHYYGSSHWYFDVWGQGTLVTVSSASVAAPSVFIFPPSDEQLKSGTASVVCLLNNFYPREAKVQWKVDNALQSGNSQESVTEQDSKDSTYSLSSTLTLSKADYEKHKVYACEVTHQGLSSPVTKSFNRGEC
notes: Bispecific, bivalent domain exchanged antibody (VH-VL exchange); also called Bevacizumab-LC06-CM-VH-VL
[4]
  Kd: 100 pM

B3: Bevacizumab-LC06-VH-VL-SS (bispecific antibody, human IgG1, kappa)
heavy 1: not shown
heavy 2: not shown
light 1: QPGLTQPPSVSVAPGQTARITCGGNNIGSKSVHWYQQKPGQAPVLVVYDDSDRPSGIPERFSGSNSGNTATLTISRVEAGDEADYYCQVWDSSSDHYVFGCGTKVTVLRTVAAPSVFIFPPSDEQLKSGTASVVCLLNNFYPREAKVQWKVDNALQSGNSQESVTEQDSKDSTYSLSSTLTLSKADYEKHKVYACEVTHQGLSSPVTKSFNRGEC
light 2: EVQLVESGGGLVQPGGSLRLSCAASGYTFTNYGMNWVRQAPGKGLEWVGWINTYTGEPTYAADFKRRFTFSLDTSKSTAYLQMNSLRAEDTAVYYCAKYPHYYGSSHWYFDVWGQGTLVTVSSASVAAPSVFIFPPSDEQLKSGTASVVCLLNNFYPREAKVQWKVDNALQSGNSQESVTEQDSKDSTYSLSSTLTLSKADYEKHKVYACEVTHQGLSSPVTKSFNRGEC
notes: Bispecific, bivalent domain exchanged antibody (VH-VL exchange and an additional VH44 VL100 disulfide bridge)
[4]
  Kd: 100 pM

B4: <ANG-2>Ang2i_LC07 (antibody, V domains shown)
VH: not shown
VL: QPVLTQSPSVSVAPGETARVACGGNFIGGKSVHWYQQKPGQAPVLVIYDDSERPSGIPERISGSNSGNTATLIITRAEAGDEADYHCQVWDSDSDQGVFGTGTKLTVLG
notes: Parent monospecific antibody
[2]
  EC50: > 8 µg/mL
[3]
  EC50: 3.01 µg/mL

B5: <ANG-2> Mab536 (antibody, V domains shown)
VH: EVQLVQSGGGVVQPGRSLRLSCAASGFTFSSYGMHWVRQAPGKGLEWVSYISSSGSTIYYADSVKGRFTISRDNAKNSLYLQMNSLRAEDTAVYYCARDLLDYDILTGYGYWGQGTLVTVSS
VL: not shown
notes: monospecific 'standard' IgG1 antibody; also called Mab536 (1000)
[5]
  binding result: no binding
[2]
  EC50: 2.54 µg/mL
[3]
  EC50: 0.133 µg/mL
[6]
  binding result: no binding (tested: 150 nM VEGF)
[7]
  IC50: 0.015 µg/mL
[8]
  Kd: 1600 pM
[9]
  Kd: 3000 pM

B6: disulfide-stabilized <VEGF-ANG-2> TvAb6 (bispecific antibody, IgG1)
heavy (part 1 of 2): EVQLVESGGGLVQPGGSLRLSCAASGFTISDYWIHWVRQAPGKGLEWVAGITPAGGYTYYADSVKGRFTISADTSKNTAYLQMNSLRAEDTAVYYCARFVFFLPYAMDYWGQGTLVTVSS
heavy (part 2 of 2): not shown
light: DIQMTQSPSSLSASVGDRVTITCRASQDVSTAVAWYQQKPGKAPKLLIYSASFLYSGVPSRFSGSGSGTDFTLTISSLQPEDFATYYCQQGYGNPFTFGQGTKVEIK
notes: Tetravalent: full-length IgG1 G6-31 with a VH44/VL100 disulfide-stabilized Mab536 scFv at the C-terminus of each heavy chain; also called TvAb6 (2331); No. 2331; not shown: IgG1 heavy chain constant region; light chain constant region
[10]
  Kd: 1.53 pM
  koff: 7.24e-06 s⁻¹
  kon: 4.72e+06 M⁻¹ s⁻¹
  t1/2: 26.6 h
[8]
  Kd: 4400 pM

B7: <ANG-2> Ang2k_LC08 (antibody, V domains shown)
VH: QVQLVESGGGVVQPGGSLRLSCAASGFTFSSYGMHWVRQAPGKGLEWVAVISYDGSNKYYADSVKGRFTISRDNSKNTLYLQMNSLRAEDTAVYYCAKPTLDIYMGYYYGMDVWGQGTTVTVSS
VL: QPVLTQPPSASGAPGQRVTISCSGFASNIGSNSVNWYQQVPGTAPKLLIYNNDQRPSGVPDRFSGSRSGTSASLAISGLQSEDEADYYCAAWDDSLNGPVFGGGTKLTVLG
notes: Parent monospecific antibody; also called <ANG-2>Ang2i-LC08
[1]
  IC50, ANGPT2 stimulated Tie2 phosphorylation (HEK293-Tie2 cells), first experiment: ~0.499 µg/mL
  IC50, ANGPT2 stimulated Tie2 phosphorylation (HEK293-Tie2 cells), second experiment: ~0.399 µg/mL
[2]
  EC50: 4.04 µg/mL
[3]
  EC50: 0.105 µg/mL
